For data set [1], the target named is T1, Slbp2-MBP (Danio rerio (zebrafish), UniProt A1L2F4 1-326). Briefly: EMSA. On the technique in general: Mobility shift assays separate free from complexed probe on a gel.
Data set [2] has as its target T1, Slbp2-MBP. Nature of the data set: competition EMSA.

Take AAAAAGGUUCUUUUAAGAACCACCCAUUUUU (structured_RNA) [h2a mRNA stem-loop (H2a SL) probe]: the binding result with Slbp2-MBP [1] was “binds”. AAAAAGGUUCUUUUAAGAACCACCCAUUUUU (structured_RNA) [unlabeled H2a SL competitor]: in the data set with Slbp2-MBP [2], the binding result was “binds”.

These data come from article PMC6239174.
